Earlier results on one substance are cited in patent US10822386B2, “Insulin analogues with enhanced stability and reduced mitogenicity” (CASE WESTERN RESERVE UNIVERSITY, priority 2014, dated 2020).

For data set [1] the following is noted: substitution of His^B10 by Asp, versus wild-type.
The next data set has as its target insulin receptor (Homo sapiens, UniProt P06213). The note with it: versus wild-type insulin.
In data set [2] the test system is neoplastic cell lines (including a cell line derived from a human breast cancer).
A further data set concerns Sprague-Dawley rats. The note with it: chronic treatment, relative to wild-type insulin.

As to Asp^B10-insulin, in data set [1], the “thermodynamic stability of the zinc-free insulin monomer” value is given as “augment the thermodynamic stability”. In addition, in the data set with insulin receptor, the “affinity for the insulin receptor” value is reported as “enhances the affinity”. For the same substance, the “potency to stimulate lipogenesis” value in the data set with isolated adipocytes is “augments in parallel its potency”. In addition, the “mitogenicity in cell culture” value in data set [2] was “increased mitogenicity”. In the data set with Sprague-Dawley rats, the “incidence of mammary tumors” value is on record as “excess incidence of mammary tumors”.
